Assay: soluble fraction after stress (log2 fold change); higher = more stays soluble; pooled small domains, quantitative proteomics
Conditions: stress: 50 degC
Method in brief: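 Pooled custom libraries of small protein domains were measured in a high-throughput format, with quantitative proteomics as the read-out. Each library was stressed at 50°C. Aggregation propensity is given as the base-two logarithm of the fold change in how much of each protein stays soluble after the stress. Higher values mean a larger share of the protein remains in solution.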

Compared with “HMSQQMSYSDFVKAVSARQIREAQIQGDKIYATDSTGNRLTIIRLDNDQRLVDDMINNDVNIIGLEE”, “HMQNEKLSYFVTETIVTERADLFITKKFPQFSRSQIQKLINSGNITINSNPIKASTEIINKDNIEITIPV” is lower in “soluble fraction (log2)” value: 0.156 for the first, -1.14 for the second.

“HMQKPELLAPAGSLEKAKTAFKYGADAVYMGTSNLSLRSRVTVDDDELIKTIEYAHSINKKVYAALNIYAR” and “HMDIIIEEGIDESLSTDDAILDLLGRASDAFSNAQKALLEGDLGSYQKLIEQAERLVKKATELLGENN” are within 0.2 log units of each other in “soluble fraction (log2)” value: 0.00596 for the first, -0.0938 for the second.

Going from “HMSINTLEVHSLKALENLAESPLLISFSYENEEYNYRLASSDVSLLKKISSNYSDDSDIKGLRFIS” to “HMPMTLGENIARLRTQKDWSQGDLADALGISRQSISKWETDTSIPELEKLIKLSELFGVTLDQLVRGE”, the “soluble fraction (log2)” value rises from -0.992 to -0.193.

Compared with “HMQEVKVRLKPDYLGEVLIKVISDKGELKAELFVSNSQVRSLLRAYAVEFQNQIRDQGYNFSEINVYR”, “HMFMVAGHLSEKNGYFYAVINYNDSLGNRKTKWMSTGLTVKGNKKRAEAILAEKRRTFQPDEPV” is lower in “soluble fraction (log2)” value: -0.551 for the first, -1.69 for the second.

Compared with “HMKQLVVVPRVVSLSEGKAREDVGDRGLVVDRVEMDTLRTPYENTVTRQEPAADSRVPVGTRVTLWISPGV”, “HMVGIVQKTFEPTGIAAEELMKTLKSDKSLDFGNVQILATPKSSTSRQVVVVSGRANDVDRVMMVLSNLDS” is lower in “soluble fraction (log2)” value: 0.261 for the first, -0.108 for the second.

First: HMLEQLTPRELKVLQALAQGRQNKEIAAQLVISERTVKFHVSAILSKLNVGNRTEAVTVAAQRGLISL
Second: HMRVDYKTQLQELLQRQGAAAPQYRLLVEEGPAHLRRFQVGVYFQGRLLGTGWGRNKKEAEQEAARQALMP
The “soluble fraction (log2)” value of the first is lower: -1.03 for the first, -0.494 for the second.

First: HMVVPELNLAQQDVLRALRQRGRATADHLSVDTHRPVSEVMGILLGLEIAEVLYRVEGGWFVPKTAR
Second: HMADTSPEGVQKLIKAFEQFGVSKDDIEGFIQRRVDAITPANVVSLRKIFTSLRDGMSSAKDWFKGA
The “soluble fraction (log2)” value of the first is lower: -0.653 for the first, 0.00107 for the second.

Going from “HMQNEVMPYSTFLSEVNSGNVTKVKIDHEQLTGTLKSGKQFTTYILDAATLPSIVAEKGVEVEVVPP” to “HMTQEFIVPKVTGYTVEDAMNLSGVKDVFEITVDSTEKSDQPAGIILFQDPKDGSSRKSDLVIHVVVSAGS”, the “soluble fraction (log2)” value falls from 0.357 to -0.137.

First: HMAQTEIPYSEFLREVGNGQIKSVIIEGSEITGFYKTSGTSFNVVAPDDPKLVERLMDQGVEVRAQPT
Second: HMSFISRMVVAVEDIALSTRPNSTPSGDKYVSKGTVLLMEKRENDWVEVRQPSSPLSGWAPKTSLLSV
The “soluble fraction (log2)” value of the first is higher: 0.0919 for the first, -0.546 for the second.

First: HMQVQHVWNRLKRPNGDVLYEINRDHPLVSASLDAAADRGAIETLLRQIEQSLPVNQLYVDMNADEHFE
Second: HMKKYISEEQAKQAALETAGGGSVVKIKFTTDDGIKVYEIDIINGNYEYEITVHAETGKILDVDKERIH
The “soluble fraction (log2)” value of the first is higher: -0.301 for the first, -1.04 for the second.

Going from “HMLPANGEAIYHYLASGAIKGVGPVTAQRIVDKFGEDTFDVLENNPLWLAEIKGITRKTAENIGAAFAAQF” to “HMEYSYKLIDLLVDRFSEEGVDPEEAREYINLFHRFSQGLDPDKRDITKYSWDELYRTVNDKKDS”, the “soluble fraction (log2)” value falls from at least 0.62 to 0.107.

“HMELLEVSVIIREADSTGWSAARQGMEQAAADLGAELRFLTLSQSNSAEEQRSLLAREVEGGADAVVLV” and “HMNIMAQDWISSPMGPISFKSNQHGLVKIGWGEVPRENTEQPNLEFTRKWLVDYFEGKASPLPYF” are within 0.2 log units of each other in “soluble fraction (log2)” value: -0.142 for the first, -0.329 for the second.

Compared with “HMLEIGRYNTLTVLRKVDFGYYLDGLDYGDILMPAKYAATELEAGDEVDVFIYLDSSEKLIATTETPIAQ”, “HMSDVTPDVVRALRKRLKLTQVQFGEIFGMTSKKVSAWEHGKAEPTEEQKQKIQSLLKENNEQ” is higher in “soluble fraction (log2)” value: -3.38 for the first, -0.0029 for the second.

“HMSIVVPDLRGKTLEEARAILKEADLDFEINDSTFSKTARPGTIRDVVPSPGSRVKAGRILFISINGF” and “HMNPLSELSFEERRELFLEAAVRLFEEKGYKNTSVEDIAGELGFTKKVFYYYWKNKREIVQEIHDRGMA” are within 0.2 log units of each other in “soluble fraction (log2)” value: -0.519 for the first, -0.479 for the second.

Going from “HMISDDLYQAVLDFTLTQDTISISRLQQNFNLGWPRARQLYDQLMQNGIIEPPDEANSAKGAVVIANKRG” to “HMAAELHPYGADSYRGDNPPAGYEIKAKEESKKFHTPSSPWYGRTIAEIWFRTEEAAEAAGFINAVK”, the “soluble fraction (log2)” value falls from 0.46 to -0.23.

Going from “HMKVWYAGINAQRVGPMTLGAMEQQIRYGRVLFSTLIWKSPMPQWVPAGDVPELRRLLDEHMLNQMP” to “HMKHKYWEIKERIKKDILNEVYKKGESIPSERDLAGIYDVTRVTVQKAMAMLVQEGYIERIHGKGMFVLKN”, the “soluble fraction (log2)” value falls from -0.381 to -0.801.

Going from “HMITVEAPMPGKVLSVNVKAGDKVEAGDVLLILEAMKMQNEIMAPEDGTVSDVRVSAGDTVATGDVMVV” to “HMGIIQAQIPGLVSRLFVKKGDKVAVNQRLFILEAMKMENEIDSPIQGMVEKIHITTGSKVEKGDLIMEIV”, the “soluble fraction (log2)” value falls from 0.0409 to -0.323.

First: HMHRAKRTKAQTQSSLESIEGIGPKTRKQLLVHFGGLAEVKAASVSELQKVKGISLDKAQKIYDFFHGS
Second: HMAPKRIVLRFGKDISDKPIIYYLVKDYDLVINILKANVNPNKEGTLVLELSGENYDKGIEFLISQGVTVQ
The “soluble fraction (log2)” value of the first is higher: 0.00473 for the first, -1.56 for the second.

Compared with “HMRQISDPTALASMVDKVIEDNPSAVADYRRGESKALGFLIGRVMQSSGGKANPKMIRGLLVKNLES”, “HMFDGVAAGKPAILDALEDAGGFLPLNSKSSVEEIQASFSFSKRVFKQLIGMLYKERKIVITDDGIRLAD” is lower in “soluble fraction (log2)” value: -0.0922 for the first, -0.352 for the second.

— the domain aggregation screens of Martell et al. (2025)
